According to the supplement of paper PMC12636428:

test system: Saccharomyces cerevisiae; assay: transcriptional activation domain activity (GFP:mCherry ratio, weighted mean of sorted bins, harmonized to initial dataset scale) (arbitrary fluorescence ratio units); higher = stronger transcriptional activation; conditions: beta-estradiol 1 µM; induction time 4 h
Procedure, shortened: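 Values are activation activity, found as the read-weighted mean of bin median fluorescence, averaged across barcodes and then mapped linearly onto the initial dataset scale. Barcoded protein tiles fused to an estradiol-inducible synthetic transcription factor were integrated at the URA3 locus of GFP-reporter yeast diploids. Cells were induced for 4 hours at 30 °C with 1 uM beta-estradiol in SC, sorted into 8 bins by GFP:mCherry ratio, and barcode-sequenced, with tiles under 50 reads discarded.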

Sequence	transcriptional activation domain activity
KVDNGGKVDNSGKVDNGRKVDSRKIDDGRKVDDGRNVDNRGRVDEGGGVVKGG	19500
KVDNGRKVDNGGKVDGRKVDNGGKVDDGRSVNDRGRADKGGGVVKGGRLVEGG	24900
KVEIRERDARSVVKLRSGANVPVTESTHGLDGGTGQDVHILVAQTKSKKFNRH	49800
KVERGREVRKKAREEREKRGATGGGRGKGRGKGKGKGRDGERGKSAAEEGAGA	10800
KVGFVLIFLFALLVFTSIICSPIYVFSVPYSSICISLQVHRCCLFYGAVIWFV	31300
KVISLLYSNRESSYLEDTCPTENDYSDLLKGYINEIEKTLPPKAIIEQYLSHF	51100
KVKAEGEASDGGAPAPDAEGGAADDSAAGKKAARVRKPKAPRAPRPAGEDPVG	34200
KVKKEKKEKKHRRHHHRHRDGSDDERSHKRRRRDDDKRGHRSSRSEHRRRSDS	29800
KVKKKRRRSDSSDEDAIAALKAKRKKKKRADSDSDEEETSRKKSKSKRRRKAD	42800
KVNQRKENKNNKNDEDNDDDNDDEEGKEKDKEEEKKDKKKKNKKCKHKKNKNK	21700
KVNTNNDVNENNDLWNSYLQSMDDTTGKNSGNYQQVDNDDNMSLLNLPILEET	90400
KVRAKEIVILPSEEDDNYKPLDTSNATTSSSEPRVDVVQEGLFREALNENDGK	32500
KVSFLFGVWFFFSFEVLGFFDFFPSFLSFRRIFFIIFILYFIIYLYVVFFVSF	73700
KVVLLFAGWIIKIIVAKLMLAWSQSMRKVIVQRAQLVYRFGINGMVFYSIGCA	60400
KVVLTERLARGKAEIKDLQVCFECMSLVGMKINIFKGNGFMWTIACSVLFQKG	52100
KVVQQFCGCHSRAANGCSGDELLRQYDYDEEDTVSSNRRFANETCRVAVLTVR	65900
KWHSTMQSAAARGTRVLHDKRRSRVKREGGEGGGGKEERRRQRRRTCATCTRL	29700
KWIIPTPFASHAFNPCDGFLQSLPYHIYVYMIPMHKYLYLLMFVLVNFWTVMI	49700
KWIVPTPFASHAFHCLDGYFQSIPYHLYVYLVPMQKWLYISMFLFVNVWTVMI	48400
KWKEKRSRNDEADGERGAERKPRKRSRSPRRRKEPEAAPERKQQEKPASAAPA	45600
KWLCYVELMNILTLGWPLSNIHFYICKYCAGWFRKYNYLFGTGINGGAQIFVL	66700

Sequence	transcriptional activation domain activity
KWLGECLNAAIAVFLYIYFLLHVGLLHLSHFFFFFFDLFSPVYTLSLQMVLYL	53800
KWVAHSVVEKCVLLLILWHRYAMDVVRECSEAWEKLITGKTAPNGISTTNLTV	31500
KWVLSILEFFVVHGFFSVTRKNAKSSLQAIHHVPNPKFSDTMKQRCRDRLFTC	51700
KYAYGCDELIFNPLVHWWKMGPINKQLRTFVWSDAPVHYKVTMLSYMFSYYGI	50100
KYEEQEDKDEEEEEKEEEEEEEEEEEEEEEGKRGEGKKATAKRRSKGSAYGGK	17300
KYLFQSQRFGGHFFQIQVVLRDIEKYLEEVHQFMLQVNIMVLGFHAMLDKAFQ	55900
KYLIQSLILYPVPLLQVIITYFVQIKRYDISTVVGCSLLNVYYPNWMFLVFFL	58800
KYLSTCLKSCNTQLLDGILNTFARIFLSLGHLVEIMPELGTSILFQTYLFALQ	52900
KYNLALILAGFFRFIPWISVLLLLLLSLSPRARSLFPWPISSILLLYTLADTI	39400
LACFLGLTFTLFLLIYFFFLSIFSFIILSLLCVLHHSACLPCLNFHMLPFCPF	61100
LACIVVCVIVYVVLTLLPLFYRDCPYLTPMSGPLWRFLQAFQFVSIVSFRRIY	41900
LADNKFSYLPPTLEELMEEQDCNNGRSFKNFMFSNDTGIDGSAGTDDDYTKVL	60000
LADYMCDYSGSLIGKHFKTLAQIMPFAIQDLVPSSVQAAWLLIGRLVVLLWVT	52900
LAEEEGEEEEGESVTPTDDKIIVKLRGKDNTDTSLRVKQTTLIRSVISSYKKI	64100
LAEGAATEEAKTEEGSAPAGETAALAEAAATEEAAATEEVKEEKKEEAATTKA	29900
LAELVPKLDDSTVQYAYVRQEYANDSESTRVKFALIIWIGQSTKVMRKARVSI	52800
LAESQRQNQQGGRGRGGRSLFDRTERGRGNRRGGHQGNGHHARQDEAANGGAE	17600
LAEVILLPDLCGFCCFSMRFVVLLDLIGTLTLPVTCLYLIYLIYVMASGNGPF	50300
LAGGLGFFLWLLPTWWVLFACVGFLVWLFWSPVVLVASVGFVAWKLGYWWVLW	24100
LAHCGCSQSLLLLLFSFPYRYYIILFHYWVLRGGLTIPIYRVLCGFFLPSFVL	62200
LAHCRAVVIRRVDGTAFEPVLRQAESLAVARTWLDRLFLCAYWMLTWFLADIV	56400

Sequence	transcriptional activation domain activity
LAHFVIHRGLIISIMQAVFSAIFYFAPIALYQGMLLVGYTTVYTMWPLFSLVL	58500
LAILMDGLNRILLTHKDDIGIVARVMLAYMTAATRFKRLFISGGGYMLFMPAV	59800
LAKARCGCCFQIGSLVELIKLCLLIMLLVVIYFVTVQALIAVLVSSKLCILVP	43800
LALCQLKFWAIFSSIKHVNGLLKHSYPFDRSNFNVLVKSLIRGMFYKFQERQD	40100
LALFGMKMVEAIMTMIHMDFRYCDFLGILPLLIFLIPCHYFYTLLKIKALLTY	60600
LALIRGGSHVGQVTFDRHSIASEGVVWCLAVKFKGVTLNLSWSEAVYRWFHVL	57300
LALLTPGPSHVDPEYGTFQSLLFFFGLCTFLTTLTGIASSYIFWLYCSVLLLA	52100
LALNDISRSVVAAGRVDGAVHITGVRDAVVAVAARQVRVHECRNVDLYLRCAS	44800
LALQRMDWHSVFRKTFYESRSWLHLLTNFSRIWIMHISAFWYYMAANIDFFYR	56400
LALQTMYFIPDIPQQALVDFWPRIWPWVQFFDIYGDIIRLCPPLQLYWVFFAY	25500
LALVIDVRFPKHPTMSNYSLVCAVRALLDFVELARYPVHTDATLRLLNDALRV	51200
LAMQGFFRTFGLLCINFDSAFRLATFFLPNMIQYTGYLIPTFQMKRWLFWISY	43200
LANGLVVVLHTEAYDLPDNFASNCWFVIYYTNNSYLRFSSIYRYIFSIVIIVL	45800
LANISLFTSFHQTDINWCGPTRLRWFGYCFCGMFVYYWLPGYFFQILTFFSWA	73700
LAPFLAWLLSLLLQFFVFFLCYNYCTCFFTCLFTCLFCPFRWLQLLLYSIITT	44000
LAQAFFASMPVVCFLTFGLFVLFALVAGFLFFTLFWVGLAFCVLVPVLVVTFC	49000
LAQDPAGEQKKRRGRPPRYNVKLEPGEGDGAVTAPVKARKRKRESETPLSAPP	33600
LARFACLTCDHNWLEDLIFGATDAIEEAFFANDITCLVFWLYNTTLWLHLMQC	51400
LARVLTDFPMIFVMCTVFCIILYFMSGFAMEASKFWIFYLFVYVTTFCITALY	46200
LARVYIRVFVLRVFRLDDYFIVVAMLCSILACSIFLWVVHLGMGKHFFALPPE	63900
LASISSLQSSQSLDQNFSIPQSPPLSSMSFNFLTGNINETNQNHSNHQHSKSG	22700

Sequence	transcriptional activation domain activity
LASIVMFRTFHEGSTWTGLTRTRMFWYVFLFSFFWYWVPGYIMPILSFFSILC	69200
LASLTPLISRRTPATTHARPHSTTQIPHRHHSAEMAEEQKPVVVADAPAAPAV	27800
LASRNPPTATSPCTRTPAPAPAPRTASTTRASTPCTASTAPRAATSAACSPAA	53100
LATTDLTHRQNGEEPIQNEIAKLFHSGGDSVVDILFSQTSATEFVTVGGTGNV	64400
LAYLVMQGFFRTFGLMCFNFDSAFRLAVFFIPNFVEYTGYILPVISMQRWLFW	63100
LCAEEYRWHWRAFLTGGGSAFWLLAYGLFFWASRLSLHSMSSAILYLGYLFLL	77800
LCAPIEVFRNICLPFVRLLHPLFFLSLLVFVEIIFPLFIPLTLLHCFLVLFGV	55100
LCASSLIWMTVSRHHLPPTIANLPATTLLILTFISLLLSIFLQFLFWALLFFW	65300
LCDNVTTQWREWMFPHNETLPALGQDGINEDNLNETIDNMLIFDFLDDGSENN	109000
LCFVFVLNIQAVLAVLWVIATKWIVIGRRRDGQYAWDSSSYCQRWQLHLVLSR	71600
LCIDDKYILIYGQEDSNHKVTVRKVTLQLFMCLINYTVRNILWWSLSGLITGF	38400
LCIGIVLIAAFIAYEYLMVSGRVLARHLPHQKSMLPWELITNKDLGLLFYVNF	44400
LCILVYLSHVSYLTLLPRFDYLYNIIFNMVIGLSHNALWLVYSLPISAFRRFP	75800
LCKAIQFCVFLGFALAGYNFEPWHQLIVYETLCFVLFLSRVLLTIQYAVVLVY	61400
LCLERLFPPLMREIFCELGIASQVFQRIVFTAIYRRICGTGPHLAHLEAKALE	30100
LCLLHRWKEFNQPEDVKCAVEYLRHLRGLPLDTFEVSHKVVTILLVQVLGIQV	48900
LCLPFFLSLLPFFQSWRYVNISLLLFFYSSSIFSPSFPFIYYFTVFFLSFLLL	29900
LCLRLMIKVAFSGEDTEVDFSMLQVAVRYILGIHGVNTLAPAWTFWGKCLDSM	37000
LCMELVLHYIYVVAISNSSPDWSAYTPFQLSMLGYFNLHHIWLKLLIPWRFFR	63800
LCNVLRLYFYLLYFIFYRNLFARLRDVEQFAMIQIASSVWVTILYPMRMTRPV	72900
